Results: the supplement of paper PMC9170038

Tested on: MS2 coat protein
Experiment: apparent KD of MS2 coat protein; higher = weaker reporter binding
Conditions: Eterna round: R107
Method in brief: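 SNAP-549-labelled MS2 coat protein was titrated onto designed RNA switches that had been transcribed on-chip from Illumina sequencing clusters. Amounts doubled from 0.7 or 1.5 nM to 3 µM in 100 mM Tris-HCl pH 7.5, 80 mM KCl, 4 mM MgCl2, with constant ligand or without. Apparent KD is the median per design of normalised cluster binding-curve fits.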

[1] = input ligand: theophylline 20 uM
[2] = input ligand: theophylline 2 mM
[3] = input ligand: tryptophan 2.4 mM

Sequence | apparent KD of MS2 coat protein (input ligand: arginine 13.2 mM) | apparent KD of MS2 coat protein [1] | apparent KD of MS2 coat protein [2] | apparent KD of MS2 coat protein (input ligand: none) | apparent KD of MS2 coat protein [3]
CCAUAAGUACCGGUCCUCAGAUCCUCAUGACGAGGACCGGUACGGCCGCCACUCGAAACAUGAGGAUCACCCAUGUAAUAAUAUC [Brourdmod17] | 25.5 nM | 53.1 nM | 66 nM | – | –
CCAUGGUUGACGGCCGCCACUCAUUAGUCUUUGAGGUUGGCACAUGAGGAUCACCCAUGUCUGCAGAGGACCGGGUCUCGCCACA [theeternabot_sameState_MS2_Trp_B_15] | 39.8 nM | 67.3 nM | 54.4 nM | – | –
CCCAGUCAUAACAAAGGAAAUAUACUCGAAGGAGCGUCAUAGUAGGCAGGUAGGUCGCGAGACAUGAGGAUCACCCAUGUAGAGA [swwvmullin] | 21.5 nM | 72 nM | 75.1 nM | 47.5 nM | 57.8 nM
CCCAGUUAUAACAAAGGAAUUAUACUCGAAGGAGCGUCAUAGUAGGCAGGUAGGUCGCGAGACAUGAGGAUCACCCAUGUAGAGA [k,lmullin] | 32.1 nM | 56.3 nM | 49.4 nM | 42.3 nM | 50 nM
CCGUCACAUGAGGAUCACCCAUGUGCGGAAGGAGCGGACGAUAGUCCAGGUAGGUCGCCGUAUAGCCAAUGACCAGCAGUGUCGG [XARG-A 22] | 12.4 nM | 16.6 nM | 14.8 nM | 13.9 nM | 15 nM
CCUAUCCAGUCGGCCGCCACUGAAAACAGUGGGUGAACAUGAGGAUCACCCAUGUAAUAAUAAAACAGGACCGGGACUGUAUAGG [Ex Tryptophan B 22] | 290 nM | 458 nM | 882 nM | 452 nM | 369 nM
CCUAUCCAGUCGGCCGCCACUGAAAACAGUGGGUGAACAUGAGGAUCACCCAUGUCGGAAUACCGCAGGACCGGGACUGUAUAGG [Ex Tryptophan B 23] | 162 nM | 393 nM | 1220 nM | 143 nM | 574 nM
CCUAUGCAGUCGGCCGCCACUGAUAAAGUUAUCUUUACCUCAGAAACAUGAGGAUCACCCAUGUACAGGACCGGGACUGUAUAGG [Ex Tryptophan B 18] | 14.8 nM | 14.6 nM | 15.9 nM | – | –
CCUCAAUCGUCGGCCGCCACUGAAUCAUGCGGAUACAUGAGGAUCACCCAUGUGGGUGUGGUACGCAGGACCGGGACAAGACCCG [#14 Same State - Tryptophan B] | 154 nM | 337 nM | 860 nM | 203 nM | 152 nM
CCUCAGCAAUUGGAUACCAGUACAUCGUAAGACAUGAGGAUCACCCAUGUGGGCUUGACAUACCCUUGGCAGCCAUCCUUGAUCC [theeternabot_sameState_MS2_Theo_B_3] | 101 nM | – | – | – | 250 nM
CCUGACAUGAGGAUCACCCAUGUGUGAGCACGAGGACCGGUACGGCCGCCACUCGCGUUGCCGGCCGGACUAUCUGGCGAAGUCA [theeternabot_sameState_MS2_Trp_A_10] | 28.3 nM | 39.6 nM | 41.4 nM | – | –
CCUUUGUAGCGAAGGAGCGCGUGACUUAGCUCAUGUAAACAUGAGGAUCACCCAUGUGACACGCAGGUAGGUCGCGCUAUGAAGG [Arg B Ex t3] | 22.2 nM | 28.7 nM | 23.5 nM | 22.3 nM | 21.9 nM
CGAUAUAAGACGGCCGCCACUAUUAAGUAUCAAAAUAAACAUGAGGAUCACCCAUGUACAUGGGAUAGGACCGGGUCCAAUAACG [A2] | 40.7 nM | 123 nM | 208 nM | 128 nM | 70.2 nM
CGCACAUGAGGAUCACCCAUGUGAGGGCGGCGAGGACCGGUACGGCCGCCACUCGCAAAACAUGAGGAUCACCCAUGUGCCGCCG [SSTA DOUBLE!!! :-D #2] | 30.1 nM | 92.3 nM | 103 nM | 32.9 nM | 29.2 nM
CGGCCCUCAGAUGAGGAUCACCCAUCUGAUACCAGCCUGGAAACAGGCCCUUGGCAGCAGAAGGUCAUCAAAGAUGACCAAGCCG [TheoAX 30 #OpenEnded #AlternativeMS2] | 10 nM | 19.4 nM | 89.1 nM | 11.8 nM | 12 nM
CGUUAAGAAUCGGCCGCCACUCCAUACGUGUGAAUCGCGGAUCGACAUGAGGAUCACCCAUGUCGGAGGACCGGGAUCCUCUUUC [theeternabot_sameState_MS2_Trp_B_12] | 28.2 nM | 49.2 nM | 48 nM | – | –
CUAAAUAUAUCGGCCGCCACUUACUCAUGAGGUAACAACAUGAGGAUCACCCAUGUUUGAGGAUCAAGGACCGGGAUAUAUUUAG [AstrosSSTryB#16] | 26.1 nM | 37.2 nM | 28.9 nM | – | –
CUACAUGGGCUCGAUACCAGUCAGCUCUCGCGUCUCUCAGACAUGAGGAUCACCCAUGUUGACCCUUGGCAGCGACGAUGUAGGC [theeternabot_exclusion_MS2_Theo_B_46] | 51.1 nM | 123 nM | – | – | 83.9 nM

Sequence | apparent KD of MS2 coat protein (input ligand: arginine 13.2 mM) | apparent KD of MS2 coat protein [1] | apparent KD of MS2 coat protein [2] | apparent KD of MS2 coat protein (input ligand: none) | apparent KD of MS2 coat protein [3]
CUACAUUUGUAGAAACCGGUCAACAUUAUUCGAGGACCGGUACGGCCGCCACUCGUAUCAUUUGAUACAUGAGGAUCACCCAUGU [Tryptophan A 8] | 21.1 nM | 26.1 nM | 26.6 nM | – | –
CUAGGAAACUAGUAAGGGUGGUAUAGAGAUACCAGUACAGAAAUGUACCCUUGGCAGCUCACUGCAACAUGAGGAUCACCCAUGU [Ex Theophylline A 11] | 29.9 nM | 41.6 nM | – | – | 26.1 nM
CUAUGUAUAUAUGCGAAAGCUACGUGUUGACGAGGACCGGUACGGCCGCCACUCGACAUGAGGAUCACCCAUGUAAUAUAUAUAG [BMP_BFE] | 102 nM | 173 nM | 300 nM | – | –
CUCCCGUGGUCGGCCGCCACUGGAGGCUUUGCGCGACAUGAGGAUCACCCAUGUGUGCCCGGCGUCAGGACCGGGAUCGCGUGAG [#1 Same State - Tryptophan B Attempt #13 (HarryS)] | 11.7 nM | 16 nM | 17.7 nM | 14.6 nM | 11.5 nM
CUCGGGUUAUCAGAUACCAGACUAAAAUUUACAUGAGGAUCACCCAUGUAAUGGGUGAUAGUCCCUUGGCAGCUGUUAUGUUUAA [JR_ExcTheophyB_Sub001] | 65 nM | 85.4 nM | – | – | 70.8 nM
CUGCCAUGCAGAGAUACCAGUGAGCUCAGAACAUGAGGAUCACCCAUGUACGCCGCCGAUCACCCUUGGCAGCUCUGCAUGGCAG [%*#)(] | 12.2 nM | 14.1 nM | 11.4 nM | 12.4 nM | 11.6 nM
CUGCCAUGCAGAGAUACCAGUGCGCUCAGCACAUGAGGAUCACCCAUGUUGGCUGCCGAUCACCCUUGGCAGCUCUGCAUGGCAG [#04 Same State - Theophylline B] | 10.9 nM | 12.5 nM | – | – | 8.66 nM
CUGUUUACAUGAGCCCGUCAUAUAUACGAUACCAGUUAAAGAUGAAACCCUUGGCAGCGUAGGACAUGAGGAUCACCCAUGUGCC [theeternabot_exclusion_MS2_Theo_A_17] | 15.6 nM | 21.1 nM | – | – | 18.6 nM
GAAACGUAGGUGGAGCGGUGAAAUGGCGAUACCAGCGUGGAAACAUGCCCUUGGCAGCGUUAGAACAUGAGGAUCACCCAUGUUU [#22 Exclusion-TheophyllineA] | 12.9 nM | 15.4 nM | – | – | 14.9 nM
GAACAGUCGGACAUGAGGAUCACCCAUGUGCGAGGACCGGUACGGCCGCCACUCGACAAGGGCGGUCCCGAAGCGAACAUACGCG [Cecearla] | 14.9 nM | 43.4 nM | 34.4 nM | – | –
GAACAUAAGGAUACUAUAAUAAGUACAGAAGGAGCGAGCGGAAGCUCAGGUAGGUCGCUGGGUAACAUGAGGAUCACCCAUGUUG [SSArg A #14 Road to perfection1] | 23.1 nM | 37 nM | 37 nM | 21.4 nM | 15.6 nM
GAAGGAGUUAUGGGUACUCCUUCACUGGAAGGAGCGAGCGAAAGCUCAGGUAGGUCGCCAGAAACAUGAGGAUCACCCAUGUAAU [(A)''-(M)'-(A)'-(Arg1)-(Arg2)-(M1)-(M2)_Design6] | 30.3 nM | 59.5 nM | 65.3 nM | 45.7 nM | 41.3 nM
GACAGACGAGGAAGGAGCGACAUGAGGAUCACCCAUGUUGCGGGUUUAAGGUGAACUAAGUGUCAGGUAGGUCGCCUCGCUUUUA [Diatbeat] | 35.7 nM | 56.5 nM | 49.3 nM | 41.2 nM | 36.3 nM
GACAUGAGGAUCACCCAUGUUUGCUAUGAAGGAGCGUCGGAAAUGACAGGUAGGUCGCAUAGUAGACCUUGUAUUUCGUGUGUUU [#01 Exclusion - Arginine A] | 10.8 nM | 14.5 nM | 11.2 nM | 10.8 nM | 12 nM
GACAUUAACUGAAGGAGCGAGGUAGAACGGGAUGAGCAUACAUGAGGAUCACCCAUGUGGCCUCAGGUAGGUCGCAGAUGAGAUU [Exclusion Arginine B GF25] | 83.4 nM | 201 nM | 203 nM | 175 nM | 179 nM
GACCGGUUAUAGCGCGAUUGUCUUGUGGAAGGAGCGCAGAGGGCUGCAGGUAGGUCGCCACAUGAGGAUCACCCAUGUCAGGAAA [Biraesge] | 28.1 nM | 32.2 nM | 35.5 nM | 19.2 nM | 19.7 nM
GAGACAUGAGGAUCACCCAUGUUAGAUGAUACCAGUUAGAGAAGGAGCCCUUGGCAGCGUAAAUCUAGAGCCUAUGACGACAUGU [ss-theoA-1] | 16.2 nM | 15.8 nM | – | – | 13.2 nM
